{"source": "paper PMC4669242", "about": "(Bioorganic & medicinal chemistry letters, 2013)", "key": {"[1]": {"tested_on": "human red blood cells (hRBCs)", "experiment": "Hemolysis assay, release of hemoglobin", "assay_type": "cell-based", "conditions": "hRBCs in PBS pH 7.4, 1 h, 37 °C, OD405; average of two independent experiments"}, "[2]": {"tested_on": "E. coli", "experiment": "Leakage of intracellular β-galactosidase", "assay_type": "cell-based, E. coli (ATCC 25922)", "conditions": "1 h of treatment, 37 °C, ONPG, OD405, average of three independent experiments"}}, "data": [{"substance": "Melittin", "values": [{"measurement": "concentration inducing hemolysis (lowest concentration tested)", "setting": "[1]", "result": "≤ 1000", "unit": "nM"}, {"measurement": "increase in β-galactosidase release as compared to control buffer", "setting": "[2]", "result": 8, "unit": "fold"}]}]}
